Key:
[1] = biological target: VLA-4 on tumor cell lines (Mec1, JM1, U266, H929, HL60, KG1) (UniProt P13612); assay: flow cytometry on U266 (MM) cells
[2] = biological target: VLA-4 on tumor cell lines (Mec1, JM1, U266, H929, HL60, KG1) (UniProt P13612); assay: flow cytometry on HL60 (AML) cells
[3] = biological target: VLA-4 on tumor cell lines (Mec1, JM1, U266, H929, HL60, KG1) (UniProt P13612); assay: flow cytometry on KG1 (AML) cells
[4] = biological target: VLA-4 on tumor cell lines (Mec1, JM1, U266, H929, HL60, KG1) (UniProt P13612); assay: flow cytometry on JM1 (CLL) cells
α4β1 [5] = biological target: T1, α4β1 (UniProt P13612 34-970; P05556 21-728); assay: competition ELISA; α4β1 preincubated with test mAb, competitor murine HP1/2
T1 construct: The preparation is not described; also called VLA-4; alpha4beta1 integrin

α4β1 [6] = biological target: T1, α4β1; assay: competition ELISA; mixture of test mAb and mouse HP1/2 (competitor) on α4β1
[7] = biological target: VLA-4 on tumor cell lines (Mec1, JM1, U266, H929, HL60, KG1) (UniProt P13612); assay: flow cytometry on H929 (MM) cells
[8] = biological target: VLA-4 on tumor cell lines (Mec1, JM1, U266, H929, HL60, KG1) (UniProt P13612); assay: flow cytometry on Mec1 (CLL) cells
[9] = biological target: VLA-4 on tumor cell lines (Mec1, JM1, U266, H929, HL60, KG1) (UniProt P13612); assay: cell-based or functional assay

Humanized HP1/2 (HuHP1/2) (antibody) showed an EC50 [1] of 0.46 nM, an EC50 [2] of 0.11 nM and an EC50 [3] of 0.19 nM. It also gave an EC50 [4] of 0.21 nM, an IC50 (α4β1 [5]) of 1.05 nM and an IC50 (α4β1 [6]) of 1.41 nM. It also gave an EC50 [7] of 0.91 nM, an EC50 [8] of 0.11 nM and an IC50 (nM), inhibition of adhesion of H929 (MM) cells to Fibronectin-coated wells [9] of 0.21 nM. For the same molecule, the IC50 (nM), inhibition of adhesion of H929 (MM) cells to VCAM1-Ig-coated wells [9] was 1.35 nM, the IC50 (nM), inhibition of adhesion of HL60 (AML) cells to Fibronectin-coated wells [9] was 0.16 nM and the IC50 (nM), inhibition of adhesion of HL60 (AML) cells to VCAM1-Ig-coated wells [9] was 0.91 nM. It also gave an IC50 (nM), inhibition of adhesion of JM1 (CLL) cells to VCAM1-Ig-coated wells [9] of 0.12 nM, an IC50 (nM), inhibition of adhesion of KG1 (AML) cells to Fibronectin-coated wells [9] of 0.05 nM and an IC50 (nM), inhibition of adhesion of KG1 (AML) cells to VCAM1-Ig-coated wells [9] of 0.1 nM. It also gave an IC50 (nM), inhibition of adhesion of Mec1 (CLL) cells to Fibronectin-coated wells [9] of 0.1 nM, an IC50 (nM), inhibition of adhesion of Mec1 (CLL) cells to VCAM1-Ig-coated wells [9] of 0.07 nM and an IC50 (nM), inhibition of adhesion of U266 (MM) cells to Fibronectin-coated wells [9] of 0.14 nM. The IC50 (nM), inhibition of adhesion of U266 (MM) cells to VCAM1-Ig-coated wells [9] was 0.13 nM, the antibody concentration giving maximal inhibition of HL60 cell binding to FN and VCAM1-Ig [9] was 20 µg/mL and the antibody concentration giving maximal inhibition of Mec1 cell binding to FN and VCAM1-Ig [9] was 20 µg/mL. For the same molecule, the antibody concentration giving maximal inhibition of U266 cell binding to FN and VCAM1-Ig [9] was 20 µg/mL.

B1: Chimeric HP1/2 (antibody, V domains shown)
VH: EVQLQQSGAELVKPGASVKLSCTASGFNIKDTYMHWVKQRPEQGLEWIGRIDPASGDTKYDPKFQVKATITADTSSNTAWLQLSSLTSEDTAVYYCADGMWVSTGYALDFWGQGTTVTVSS
VL: SIVMTQTPKFLLVSAGDRVTITCKASQSVTNDVAWYQQKPGQSPKLLIYYASNRYTGVPDRFTGSGYGTDFTFTISTVQAEDLAVYFCQQDYSSPYTFGGGTKLEIK
notes: also called chimerized HP1/2 antibody; chimeric mAb
In the case of B1, the IC50 (α4β1 [5]) is reported as 1.06 nM and the IC50 (α4β1 [6]) is reported as 1.64 nM.

B2: H1L0 (antibody, V domains shown)
VH: EVQLVQSGAEVKKPGATVKISCKASGFNIKDTYMHWVQQAPGKGLEWMGRIDPASGDTKYDPKFQVRVTITADTSTDTAYMELSSLRSEDTAVYYCADGMWVSTGYALDFWGQGTLVTVSS
VL: DIVMTQSPDSLAVSLGERATINCKASQSVTNDVAWYQQKPGQPPKLLIYYASNRYTGVPDRFSGSGSGTDFTLTISSLQAEDVAVYYCQQDYSSPYTFGQGTKVEIK
Molecule B2 has an IC50 (α4β1 [5]) of 1.87 nM and an IC50 (α4β1 [6]) of 4.46 nM.

B3: H1L2 (antibody, V domains shown)
VH: EVQLVQSGAEVKKPGATVKISCKASGFNIKDTYMHWVQQAPGKGLEWMGRIDPASGDTKYDPKFQVRVTITADTSTDTAYMELSSLRSEDTAVYYCADGMWVSTGYALDFWGQGTLVTVSS
VL: SIVMTQSPDSLAVSLGERATINCKASQSVTNDVAWYQQKPGQPPKLLIYYASNRYTGVPDRFSGSGYGTDFTLTISSLQAEDVAVYFCQQDYSSPYTFGQGTKVEIK
For B3, the IC50 (α4β1 [5]) was 0.9 nM and the IC50 (α4β1 [6]) was 1.34 nM.

B4: H1L3 (antibody, V domains shown)
VH: EVQLVQSGAEVKKPGATVKISCKASGFNIKDTYMHWVQQAPGKGLEWMGRIDPASGDTKYDPKFQVRVTITADTSTDTAYMELSSLRSEDTAVYYCADGMWVSTGYALDFWGQGTLVTVSS
VL: SIVMTQSPDSLAVSLGERATINCKASQSVTNDVAWYQQKPGQPPKLLIYYASNRYTGVPDRFSGSGYGTDFTFTISSLQAEDVATYFCQQDYSSPYTFGQGTKVEIK
Work on B4 yielded an IC50 (α4β1 [5]) of 0.49 nM.

B5: H1L1 (antibody, V domains shown)
VH: EVQLVQSGAEVKKPGATVKISCKASGFNIKDTYMHWVQQAPGKGLEWMGRIDPASGDTKYDPKFQVRVTITADTSTDTAYMELSSLRSEDTAVYYCADGMWVSTGYALDFWGQGTLVTVSS
VL: SIVMTQSPDSLAVSLGERATINCKASQSVTNDVAWYQQKPGQPPKLLIYYASNRYTGVPDRFSGSGSGTDFTLTISSLQAEDVAVYFCQQDYSSPYTFGQGTKVEIK
In the case of B5, the IC50 (α4β1 [5]) is reported as 1.67 nM and the IC50 (α4β1 [6]) is reported as 4.55 nM.
